Experimental data taken from paper PMC5743070 (The Journal of Biological Chemistry, 2017).

How the values were obtained:
[1] = molecular target: T1, TTD–PHD (UHRF1_126–366) (Homo sapiens, UniProt Q96T88); experiment: (1H-15N) TROSY NMR titration of TTD–PHD; type: binding
T1 construct: His tag (TEV-cleavable) (N); made in house
T1 sequence (Q96T88 126-366): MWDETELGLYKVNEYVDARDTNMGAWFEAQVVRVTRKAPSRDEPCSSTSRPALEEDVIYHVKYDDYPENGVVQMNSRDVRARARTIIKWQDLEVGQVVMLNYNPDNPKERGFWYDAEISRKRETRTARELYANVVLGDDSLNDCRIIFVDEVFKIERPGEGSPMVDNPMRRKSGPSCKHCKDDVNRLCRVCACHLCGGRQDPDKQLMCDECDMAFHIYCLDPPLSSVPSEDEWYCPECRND
Procedure: Exchange broadening is clearly observed for Arg^282, Gly^284, Asp^291, Asn^292, Met^294, and Ser^301 amide resonances at 1:3 protein/BPC ratios, with perturbations also seen with Gly^286 and Gly^299 (Fig. 4 and supplemental Fig. S6).
(§1) NMR samples were buffered in 20 mM sodium phosphate (pH 7.5), 150 mM NaCl, 5 mM DTT, 5 mM β-mercaptoethanol, 2 mM TCEP, and 10 μM ZnSO4. The protein concentration was between 200 and 300 μM for all samples. The data were collected at 25 °C on Bruker spectrometers equipped with cryoprobes and operating at 500, 600, or 800 MHz. The assignment of backbone TTD–PHD resonances was accomplished using the ABACUS method ([29]) for which standard backbone and ^15N-edited NOESY spectra were collected using ^15N/^13C/^2H- or ^15N/^13C-labeled protein. All 3D experiments were acquired using non-uniform sampling and processed using the software MDDGUI ([30]) or qMDD ([31]). ^15N-Labeled TTD–PHD was used to acquire ^15N T1 and T2 relaxation and ^1H-^15N heteronuclear NOE measurements ([32]) collected using standard Bruker pulse schemes in an interleaved manner. For T1 measurements, the variable delay was set to 0.1, 0.4, 0.8, 1.5, 2.0, 2.5, 3.5, and 5 s. For T2 measurements, the variable delay was set to 16, 32, 48, 64, 80, 96, 128, and 144 ms. The D1 was 3 s for all experiments. Reported values were the average from two measurements. All spectra were processed using NMRPipe ([33]) and analyzed with SPARKY ([34]).

[2] = molecular target: T2, TTD (UHRF1_121–286) (Homo sapiens, UniProt Q96T88); experiment: (1H-15N) HSQC NMR titration of TTD; type: binding; details: (1H-15N) HSQC spectra of TTD
T2 construct: UHRF1_121–286 corresponding to the TTD; made in house
T2 sequence (Q96T88 121-286): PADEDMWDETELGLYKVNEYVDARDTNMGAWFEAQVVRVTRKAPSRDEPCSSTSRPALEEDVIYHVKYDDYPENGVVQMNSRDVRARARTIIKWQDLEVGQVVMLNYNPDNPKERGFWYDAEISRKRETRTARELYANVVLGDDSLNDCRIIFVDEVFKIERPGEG
Description: We designed a fragment library containing 2,040 compounds that was initially screened against isolated TTD (UHRF1_121–286) using a fluorescence polarization (FP) assay that tracked the displacement of a N-terminally tagged H3K9me3 peptide (H3K9me3(1–25)). From this screen, eight putative TTD-binding hits were identified. […] Because of limited commercial availability of the tricyclic amine, we focused only on BPC. The binding of this compound occurs close to (or within) the Arg^296-binding pocket; we observe significant perturbation of Trp^238 and Phe^278 resonances that form part of the pocket, and in Gly^236, which is directly adjacent to it (Fig. 4A and supplemental Fig. S5). We also see chemical shift changes in non-surface exposed residues that are close to or are in contact with the groove.
as §1
Figure S5 (related to Fig. 4)
Binding of BPC in the groove of TTD. […]
labeled (at the N-terminus) H3K9me3(1-25) peptide, (B) ITC, and (C) DSF. (D) KD estimates of BPC bind-ing based on I211 and Y239 amide peak movement (where Δ(ppm) = ((ΔδHN)2 + (ΔδN/6.5)2 )1⁄2) in (1H-15N) HSQC spectra when the TTD is titrated with BPC. […]
as a function of TTD sequence resulting from BPC (blue) or PBR peptide (red) binding. (F) HSQC overlays […]
ment:protein), and PBR peptide ratios (bottom spectrum - from 1:1 to 5:1 peptide:protein). The protein con-centration was ~250 µM for all NMR experiments, and the DMSO concentration was 5% for NMR titrations […]
(§2) (1 picture or pasted object on this page, not shown here)

[3] = molecular target: T1, TTD–PHD (UHRF1_126–366); experiment: ITC of H3 peptide binding to TTD–PHD
Procedure: A preliminary peptide injection of 0.06 μl was followed by subsequent 2-μl injections into the sample cell containing 167 μl of 50 μM TTD–PHD. Where indicated, 1.5 mM BPC or 1.5 mM PBR peptide was included in the injection syringe and sample cell. The reported KD and n values are based on the average from two measurements. For ITC measurements of TTD (UHRF1_121–286) interaction with BPC, the protein was buffered in 20 mM Tris (pH 7.4), 50 mM NaCl, and 5% DMSO. BPC was brought to a concentration of 2.5 mM and injected into the sample cell containing 40 μM protein. The data were acquired on a Nano ITC from TA Instruments at 25 °C and fitted with an independent-binding site model using NanoAnalyze software (v3.7.0).
ITC curves showing TTD-PHD binding to methylated (red) and unmethylated (black) H3 peptide.
as §2

[4] = molecular target: T2, TTD (UHRF1_121–286); experiment: HSQC competition of BPC and linker peptide on TTD; type: binding; details: BPC 2.4 mM, linker peptide 3.0 mM, 5% DMSO; I211, I212 and E281 resonances in HSQC
Procedure: as §1, with “([34]). […]” for “([34]).”
trated by the perturbation of I211, I212 and E281 resonances in HSQC spectra of the TTD in a competition assay. […]

Row | Substance | effect on linker resonances of TTD–PHD ([1]; (1H-15N) TROSY, ~250 μM protein/750 μM ligand) | effect on TTD–PHD conformation ([1]; Fig. 4) | binding site on TTD by amide peak movement [2] | effect on TTD–PHD binding affinity for the histone peptide ([3]; 1.5 mM BPC (4% DMSO) or 1.5 mM PBR peptide, H3K9me3(1–15)) | increase of KD for H3K9me3 (effect of added ligand) ([3]; 1.5 mM BPC or PBR peptide in syringe and cell, vs apo TTD–PHD) [fold] | competition for the TTD groove [4]
1 | PBR peptide: 15-residue peptide corresponding to the PBR (UHRF1_643–657) (GKGKWKRKSAGGGPS; UniProt Q96T88 643-657, looked up, fragment) [reference compound] | strikingly similar peak broadening/perturbation pattern | promote open TTD–PHD conformations | binding in the groove | reduces the TTD–PHD binding affinity for the histone peptide | ~5 | –
2 | linker peptide: linker peptide (corresponding to UHRF1286-300) (GSPMVDNPMRRKSGP; UniProt Q96T88 286-300, looked up, fragment) [reference compound] | – | – | – | – | – | compete directly for the TTD groove
